Ten molecules from patent US11472855, “RNA-binding protein” (Panitch Schwarze Belisario & Nadel LLP) can be followed below.

Common to all, as to settings: label: Alexa680 at 5' and 3'
Data set [1] has as its target T1, hPUF_MT(R3→R5, R4→R5, R5; all C12S,Q16E).
T1 chain: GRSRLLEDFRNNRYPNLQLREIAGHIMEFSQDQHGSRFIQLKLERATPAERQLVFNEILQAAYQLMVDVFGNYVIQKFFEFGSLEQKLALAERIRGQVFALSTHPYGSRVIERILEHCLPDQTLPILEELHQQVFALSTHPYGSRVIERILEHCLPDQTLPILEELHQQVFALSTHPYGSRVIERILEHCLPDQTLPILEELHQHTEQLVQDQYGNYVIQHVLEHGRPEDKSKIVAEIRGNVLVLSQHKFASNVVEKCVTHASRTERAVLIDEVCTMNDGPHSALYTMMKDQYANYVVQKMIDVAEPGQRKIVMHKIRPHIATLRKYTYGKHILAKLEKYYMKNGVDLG
The experiment in a line: EMSA; binds only to its target.

In data set [2] the target is T2, hPUF_MT(R3→R5_C12N, R4→R5_C12N, R5_C12N).
T2 chain: T1 chain with S108N, E112Q, S144N, E148Q, S180N, E184Q
The experiment in a line: EMSA; binds only to its target. (In general: In EMSA bound probe runs differently from free probe, usually more slowly.)

Data set [3] addresses T3, hPUF_MT(R3→R5, R4→R5, R5; all C12S,Q16R).
T3 chain: T1 chain with E112R, E148R, E184R
The experiment in a line: EMSA; stronger than A-recognising P8.

For data set [4], the target named is T4, hPUF_MT(R5:A_13R)3(R6:C_13Y)3.
T4 chain: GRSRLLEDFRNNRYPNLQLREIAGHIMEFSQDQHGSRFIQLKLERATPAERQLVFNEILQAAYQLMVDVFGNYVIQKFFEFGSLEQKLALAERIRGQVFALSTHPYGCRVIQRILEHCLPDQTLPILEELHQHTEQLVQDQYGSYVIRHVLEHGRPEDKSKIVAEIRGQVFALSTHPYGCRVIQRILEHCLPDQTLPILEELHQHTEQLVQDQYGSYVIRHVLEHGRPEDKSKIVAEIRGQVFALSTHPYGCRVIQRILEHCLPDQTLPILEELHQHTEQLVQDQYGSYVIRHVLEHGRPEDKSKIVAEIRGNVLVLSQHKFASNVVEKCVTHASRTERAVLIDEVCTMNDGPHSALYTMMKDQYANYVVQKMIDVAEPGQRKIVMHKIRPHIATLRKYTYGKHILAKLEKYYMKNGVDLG
Kind of data set: EMSA; best of three.

Data set [5] has as its target T5, hPUF_MT(R5:G_13R)3(R6:U_13Y)3.
T5 chain: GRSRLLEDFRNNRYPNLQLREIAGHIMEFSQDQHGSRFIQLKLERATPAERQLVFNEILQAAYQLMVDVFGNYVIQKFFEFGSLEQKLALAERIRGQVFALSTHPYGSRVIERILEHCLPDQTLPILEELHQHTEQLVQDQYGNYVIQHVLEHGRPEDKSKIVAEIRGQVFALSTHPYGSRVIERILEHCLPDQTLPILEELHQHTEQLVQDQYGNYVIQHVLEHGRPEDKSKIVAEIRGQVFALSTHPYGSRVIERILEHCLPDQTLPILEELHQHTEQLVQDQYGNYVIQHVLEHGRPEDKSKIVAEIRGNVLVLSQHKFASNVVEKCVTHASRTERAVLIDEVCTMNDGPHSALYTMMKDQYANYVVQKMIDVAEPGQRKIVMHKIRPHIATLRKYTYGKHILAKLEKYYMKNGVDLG
The experiment in a line: EMSA.

Data set [6] addresses T3, hPUF_MT(R3→R5, R4→R5, R5; all C12S,Q16R). Kind of data set: EMSA; binds only to its target.
For data set [7], the target named is T2, hPUF_MT(R3→R5_C12N, R4→R5_C12N, R5_C12N). The experiment in a line: EMSA; strongest of the four.
Data set [8] deals with T6, hPUF_MT(R3→R5, R4→R5_R13Y, R5_R13Y).
T6 chain: T1 chain with S108C, E112Q, S144C, R145Y, E148Q, S180C, R181Y, E184Q
The experiment in a line: EMSA; H=Y>R>F=W>K.

For the next data set, the target named is T7, hPUF_MT(R3→R5, R4→R5).
T7 chain: T1 chain with S108C, E112Q, S144C, E148Q, S180C, E184Q
The experiment in a line: EMSA; A-A stacking: H=Y>R>F=W>K.

Data set [9] concerns the target T8, hPUF_MT(R3→R5, R4→R5_R13H, R5_R13H).
T8 chain: T1 chain with S108C, E112Q, S144C, R145H, E148Q, S180C, R181H, E184Q
Kind of data set: EMSA; H=Y>R>F=W>K; Example 5-2 states a different order.

Data set [10] has as its target T9, hPUF_MT(R4→R6_N12C, R6_N12C) (UniProt Q14671 SEQ:1-349).
T9 chain: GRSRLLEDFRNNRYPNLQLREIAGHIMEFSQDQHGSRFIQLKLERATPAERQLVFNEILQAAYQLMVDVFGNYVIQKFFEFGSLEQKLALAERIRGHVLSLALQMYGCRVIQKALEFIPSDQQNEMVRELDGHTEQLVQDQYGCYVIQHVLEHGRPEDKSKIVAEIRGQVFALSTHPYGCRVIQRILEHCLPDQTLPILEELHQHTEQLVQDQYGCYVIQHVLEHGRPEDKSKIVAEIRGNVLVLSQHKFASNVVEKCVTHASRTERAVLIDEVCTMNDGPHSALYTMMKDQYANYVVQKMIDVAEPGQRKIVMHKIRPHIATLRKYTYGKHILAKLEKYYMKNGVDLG
Kind of data set: EMSA.

Data set [11] has as its target T10, hPUF_MT(R5:A_13R)3(R6:G_13Y)3.
T10 chain: T4 chain with R148E, R220E, R292E
Kind of data set: EMSA; best of three.

Data set [12] has as its target T1, hPUF_MT(R3→R5, R4→R5, R5; all C12S,Q16E). The experiment in a line: EMSA; stronger than A-recognising P8.
Data set [13] concerns the target T11, hPUF_MT(R4→R6_N12S,Q16R, R6_N12S,Q16R) (UniProt Q14671 SEQ:1-349).
T11 chain: T9 chain with C144S, Q148R, C216S, Q220R
The experiment in a line: EMSA; comparable to or relatively weaker than WT U recognition.

Data set [14] concerns the target T12, hPUF_MT(R4→R6_N12S,Q16E, R6_N12S,Q16E) (UniProt Q14671 SEQ:1-349).
T12 chain: T9 chain with C144S, Q148E, C216S, Q220E
The description is as above.

Substitutions are numbered along the chain they refer to.

For CCAGAAUUGUCCCUAUUCG (ssRNA) [OTS-1843], the binding result in data set [1] is listed as “no binding”; in data set [2], “no binding”; in [3], “binds”.
As for CCAGAAUUGCACACAUAUUCG (ssRNA) [OTS-2004 (Example 5-4)], the binding result in [4] is reported as “binds”.
As for CCAGAAUUGUGUGUGUAUUCG (ssRNA) [OTS-2004 (Example 5-6)], the binding result in data set [5] was “binds”.
On to CCAGAAUUGUUUUUAUUCG (ssRNA) [OTS-1841], for which the binding result in [6] is on record as “no binding”; in [1], “no binding”; in [7], “binds”.
For the molecule CCAGAAUUGUAAAUAUUCG (ssRNA) [OTS-1759], the binding result in [8] was “binds”; with hPUF_MT(R3→R5, R4→R5), “binds”; in [9], “binds”.
On to CCAGAAUUGAAAAUAUUCG (ssRNA) [OTS-1819], for which the binding signal in [10] was ~0.01 fold of U-recognising type.
As for CCAGAAUUGGAGAGAUAUUCG (ssRNA) [OTS-2008], in [11], the binding result is listed as “binds”.
In the case of CCAGAAUUGUGGGUAUUCG (ssRNA) [OTS-1842], the binding result in data set [6] is “no binding”; in data set [2], “no binding”; in data set [12], “binds”.
For CCAGAAUUGCACAUAUUCG (ssRNA) [OTS-1979], the binding result in data set [13] was “binds”.
For the molecule CCAGAAUUGGAGAUAUUCG (ssRNA) [OTS-1978], in data set [14], the binding result is “binds”.
